Source: US20260234247A1 (published 2026)

B1: LK-RB1-59 (antibody, human IgG4 S228P, kappa, V domains shown)
VH: QIQLVQSGPELKKPGETVKISCKASGYTFTTYGMSWVKQAPGKGLKWMGWINTYSGVPTYADDFKGRFAFSLETSASTAYLQINNLKNEDTATYFCARRRIYYGNKGYAMDYWGQGTSVTVSS
VL: DIQMTQSPASLSVSVGETVTITCRASENIYSNLVWYQQKQGKSPQLLVYTATNLADGVPSRFSGSGSGTQFSLKINSLQSEDFGSYYCQHFWGTPWTFGGGTKLEIKR
B2: LK-RB2-5 (antibody, human IgG4 S228P, kappa, V domains shown)
VH: QIQLVQSGPELKKPGETVKISCKASGYTFTTYGMSWVKQAPGKGLKWMGWINTYSGVPTYADDFKGRFAFSLETSVSTAYLQINNLKNEDTATYFCARRDGYDGGGNFDYWGQGTTLTVSS
VL: DIVMTQSPATLSVTPGDRVSLSCRASQSISDYLHWYQQKSHESPRLLIKYASQSISGIPSRFSGSGSGSDFTLSINSVEPEDVGVYYCQNGHGFPWTFGGGTKLEIKR
B3: LK-RB2-8 (antibody, human IgG4 S228P, kappa, V domains shown)
VH: QIQLVQSGPELKKPGETVKISCKASGYSFASYGMGWVKQAPGKGLKWLGWINTHSGVPTYADDFKGRFAFSLETSASTAYLQINNLKNEDTATYFCAHYGRPWFPYWGQGTLVTVSA
VL: DIQMTQSPASLSASVGETVTITCRTSENIYSYLAWYQQKQGKSPQLLVYNAKSLAEGVPSRFSGSGSGTQFSLRINSLQPEDFGTYYCQQHYETPLTFGAGTKLELKR
B4: LK-RB2-12 (antibody, human IgG4 S228P, kappa, V domains shown)
VH: QIQLVQSGPELKKPGETVKISCKASGYTFTTYGMSWVKQTPGKGLKWMGWINIYSGVPTYADDFKGRFVFSLEISASTAHLQINNLKNEDTATYFCARRKDYSGHCFDYWGQGTTLTVSS
VL: DIVLTQSPASLAVSPGQRATISCRASESVDTYGISFMHWYQQKPGQPPKLLIYRASNLESGIPARFSGSGSRTDFTLTINPVETDDVAIYYCQQSKKDPYTFGGGTKLEIKR
B5: LK-RB2-16 (antibody, human IgG4 S228P, kappa, V domains shown)
VH: QIQLVQSGPELKKPGETVKISCKASGYTFTTYGMGWVKQAPEKGLKWMGWINTNSGAPTYGDDFKGRFAFSLETSASTAYLQINNLKNEDTATYFCAHYGRPWFAYWGQGTLVTVSA
VL: DIQMTQSPASLSASVGETVTITCRASENIYSYLAWYHQKQGESPQLLVYNAKTLAEGVPSRFSGSGSGTQFSLKINSLQPEDFGSYYCQHHYNIPLTFGAGTKLELKR
B6: 12D12 (antibody, human IgG4 S228P, kappa, V domains shown)
VH: QVQLQQPGAELVKPGASVRMSCKASGYTFTSYWVHWVKQRPGQGLEWIGVIDPSDSYTSYNQNFKGKATLTVDTSSKTAYIHLSSLTSEDSAVYFCARGERYDGDYFAMDYWGQGTSVTVSS
VL: DIVMTQSPASLSVSVGETVTITCRASENIYSNLAWYQQKQGKSPQLLVYAATNLADGVPSRFSGSRSGTQYSLKINSLQSEDFGTYYCQHFWNTPRTFGGGTKLEIKR
B7: LK-RB2-24 (antibody, human IgG4 S228P, kappa, V domains shown)
VH: QIQLVQSGPEVKKPGETVKISCKASGYTFTTYGMSWVKQAPGKGLKWMGWLNIYSGVPAYADDFKGRFAFSLESSASTAYLQINNLKNEDTATYFCARRENYDGYGMDYWGQGTSVTVSS
VL: DIVMTQSPATLSVTPGDRVSLSCRASQSISDYLHWYQQKSHESPRLLIKYASQSISGIPSRFSGSGSGSDFTLSINSVEPEDVGVYYCQNGHSFPYTFGGGTKLEIKR
B8: LK-RB2-2.h1 (antibody, human IgG4, kappa, V domains shown)
VH: EVQLVESGGGLVKPGGSLRLSCAASGFTFSSYAMSWVRQAPGKGLEWVSYISSGGDYFHYADTVKGRFTISRDNAKNSLYLQMNSLRAEDTAVYYCAREGAHYDSSYLAWFAHWGQGTLVTVSS
VL: DIQMTQSPSSVSASVGDRVTITCRASENIYSNLAWYQQKPGKAPKLLIYAATNLAEGVPSRFSGSGSGTDYTLTISSLQPEDFATYYCQQFWDNPLTFGQGTKLEIKR
notes: Humanized form of LK-RB2-2
B9: LK-RB2-2.h2 (antibody, human IgG4, kappa, V domains shown)
VH: EVQLVESGGGLVKPGGSLRLSCAASGFTFSSYAMSWVRQAPGKGLEWVSYISSGGDYFHYADTVKGRFTISRDNAKNSLYLQMNSLRAEDTAVYYCAREGAHYDSSYLAWFAHWGQGTLVTVSS
VL: DIQMTQSPSSVSASVGDRVTITCRASENIYSNLAWYQQKPGKAPKLLVYAATNLAEGVPSRFSGSGSGTDYTLTISSLQPEDFATYYCQQFWDNPLTFGQGTKLEIKR
notes: Humanized form of LK-RB2-2
B10: LK-RB2-2.h3 (antibody, human IgG4, kappa, V domains shown)
VH: EVQLVESGGGLVKPGGSLRLSCAASGFTFSSYAMSWVRQAPGKGLEWVAYISSGGDYFHYADTVKGRFTISRDNAKNSLYLQMNSLRAEDTAVYYCTREGAHYDSSYLAWFAHWGQGTLVTVSS
VL: DIQMTQSPSSVSASVGDRVTITCRASENIYSNLAWYQQKPGKAPKLLIYAATNLAEGVPSRFSGSGSGTDYTLTISSLQPEDFATYYCQQFWDNPLTFGQGTKLEIKR
notes: Humanized form of LK-RB2-2
B11: LK-RB2-24.h2 (antibody, human IgG4, kappa, V domains shown)
VH: QVQLVQSGSELKKPGASVKVSCKASGYTFTTYGMSWVKQAPGQGLKWMGWLNIYSGVPAYADDFKGRFVFSLDTSASTAYLQISSLKAEDTAVYFCARRENYDGYGMDYWGQGTLVTVSS
VL: EIVLTQSPATLSLSPGERATLSCRASQSISDYLHWYQQKPGQAPRLLIKYASQSISGIPSRFSGSGSGTDFTLTISSLEPEDFAVYYCQNGHSFPYTFGGGTKLEIKR
notes: Humanized form of LK-RB2-24
B12: LK-RB2-24.h1 (antibody, human IgG4, kappa, V domains shown)
VH: QVQLVQSGSELKKPGASVKVSCKASGYTFTTYGMSWVKQAPGQGLKWMGWLNIYSGVPAYADDFKGRFVFSLDTSASTAYLQISSLKAEDTAVYFCARRENYDGYGMDYWGQGTLVTVSS
VL: EIVLTQSPATLSLSPGERATLSCRASQSISDYLHWYQQKPGQAPRLLIKYASQSISGIPARFSGSGSGTDFTLTISSLEPEDFAVYYCQNGHSFPYTFGGGTKLEIKR
notes: Humanized form of LK-RB2-24
B13: LK-RB2-24.h3 (antibody, human IgG4, kappa, V domains shown)
VH: QVQLVQSGSELKKPGASVKVSCKASGYTFTTYGMSWVKQAPGQGLKWMGWLNIYSGVPAYADDFKGRFVFSLDTSASTAYLQISSLKAEDTAVYFCARRENYDGYGMDYWGQGTLVTVSS
VL: EIVLTQSPATLSLSPGERATLSCRASQSISDYLHWYQQKPGQAPRLLIKYASQSISGIPSRFSGSGSGTDFTLTISSLEPEDVAVYYCQNGHSFPYTFGGGTKLEIKR
notes: Humanized form of LK-RB2-24

Key:
[1] = target: T1, human LILRB1 expressed on CHOK1 cells (CHOK1-hLILRB1) (human, UniProt Q8NHL6 24-650); assay: cell based RBA, flow cytometry: blocking of HLA-G binding to CHOK1-hLILRB1 cells
T1 construct: whole, on cells; also called CHOK1-LILRB1
T1 sequence (Q8NHL6 24-650): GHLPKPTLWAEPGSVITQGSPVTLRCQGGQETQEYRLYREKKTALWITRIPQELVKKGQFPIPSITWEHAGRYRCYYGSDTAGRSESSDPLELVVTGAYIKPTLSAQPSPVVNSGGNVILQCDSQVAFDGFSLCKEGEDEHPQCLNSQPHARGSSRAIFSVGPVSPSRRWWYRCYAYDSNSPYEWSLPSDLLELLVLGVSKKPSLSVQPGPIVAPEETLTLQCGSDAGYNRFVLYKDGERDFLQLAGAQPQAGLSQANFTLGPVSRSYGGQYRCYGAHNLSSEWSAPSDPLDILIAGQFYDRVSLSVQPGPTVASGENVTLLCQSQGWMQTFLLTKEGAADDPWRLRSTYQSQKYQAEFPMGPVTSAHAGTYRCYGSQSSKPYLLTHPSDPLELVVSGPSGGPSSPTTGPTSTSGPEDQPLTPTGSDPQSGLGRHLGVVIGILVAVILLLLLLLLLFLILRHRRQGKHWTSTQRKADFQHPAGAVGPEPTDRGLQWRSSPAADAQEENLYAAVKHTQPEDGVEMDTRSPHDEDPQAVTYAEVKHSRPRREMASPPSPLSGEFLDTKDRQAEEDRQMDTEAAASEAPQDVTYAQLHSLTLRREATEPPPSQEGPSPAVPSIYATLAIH

[2] = target: T2, human LILRB2 expressed on CHOK1 cells (CHOK1-hLILRB2) (human, UniProt Q8N423 22-597); assay: FACS binding to CHOK1-hLILRB2 cells
T2 construct: whole, on cells; also called CHOK1-LILRB2
T2 sequence (Q8N423 22-597): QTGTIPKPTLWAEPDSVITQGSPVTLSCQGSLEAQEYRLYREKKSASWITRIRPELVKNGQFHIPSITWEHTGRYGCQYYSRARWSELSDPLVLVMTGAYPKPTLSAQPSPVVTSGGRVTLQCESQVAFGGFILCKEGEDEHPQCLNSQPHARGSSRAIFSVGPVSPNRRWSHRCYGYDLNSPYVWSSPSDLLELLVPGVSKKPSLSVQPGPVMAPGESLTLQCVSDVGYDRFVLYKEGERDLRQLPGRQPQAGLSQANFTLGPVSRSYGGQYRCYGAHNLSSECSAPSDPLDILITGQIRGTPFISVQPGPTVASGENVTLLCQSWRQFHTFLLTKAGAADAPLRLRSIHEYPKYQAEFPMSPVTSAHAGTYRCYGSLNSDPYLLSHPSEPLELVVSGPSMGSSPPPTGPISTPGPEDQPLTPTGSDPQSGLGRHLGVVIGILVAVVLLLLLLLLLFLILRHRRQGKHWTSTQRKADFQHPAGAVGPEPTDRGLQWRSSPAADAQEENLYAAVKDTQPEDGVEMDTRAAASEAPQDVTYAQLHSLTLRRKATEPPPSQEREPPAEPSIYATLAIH

[3] = target: T1, human LILRB1 expressed on CHOK1 cells …; assay: FACS binding to CHOK1-hLILRB1 cells
[4] = target: T3, human LILRB2 (human, UniProt Q8N423 22-460, limits assumed); assay: Octet off-rate ranking;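 further: antibody dissociation rate constants against cynomolgus LILRB2 plus human LILRB1, LILRB2, LILRA1 and LILRA2, measured on an Octet instrument to rank binding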
T3 construct: also called hLILRB2
T3 sequence (Q8N423 22-460 limits assumed): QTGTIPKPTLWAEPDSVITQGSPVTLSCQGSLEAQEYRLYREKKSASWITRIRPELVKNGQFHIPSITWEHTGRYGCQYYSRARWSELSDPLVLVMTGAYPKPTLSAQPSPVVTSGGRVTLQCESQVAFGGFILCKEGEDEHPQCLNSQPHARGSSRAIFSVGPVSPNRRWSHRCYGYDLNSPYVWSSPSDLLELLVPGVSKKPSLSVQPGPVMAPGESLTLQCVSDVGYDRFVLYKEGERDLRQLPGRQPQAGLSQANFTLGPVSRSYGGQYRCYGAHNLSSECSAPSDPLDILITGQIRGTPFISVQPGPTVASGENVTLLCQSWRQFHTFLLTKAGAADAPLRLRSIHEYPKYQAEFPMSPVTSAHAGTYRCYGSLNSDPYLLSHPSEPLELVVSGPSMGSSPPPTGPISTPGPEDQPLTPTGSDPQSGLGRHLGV
Description: (§1) Binding affinity of anti-LILRB1 and anti-LILRB2 antibodies against human LILRB1, LILRB2, LILRA1, LILRA2 and cynomolgus LILRB2 was ranked by measuring dissociation rate constant (Kdis) using the Octet system.

[5] = target: T4, human LILRB1 (human, UniProt Q8NHL6 24-458, limits assumed); assay: Octet off-rate ranking;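 further: antibody dissociation rate constants against cynomolgus LILRB2 plus human LILRB1, LILRB2, LILRA1 and LILRA2, measured on an Octet instrument to rank binding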
T4 construct: also called hLILRB1
T4 sequence (Q8NHL6 24-458 limits assumed): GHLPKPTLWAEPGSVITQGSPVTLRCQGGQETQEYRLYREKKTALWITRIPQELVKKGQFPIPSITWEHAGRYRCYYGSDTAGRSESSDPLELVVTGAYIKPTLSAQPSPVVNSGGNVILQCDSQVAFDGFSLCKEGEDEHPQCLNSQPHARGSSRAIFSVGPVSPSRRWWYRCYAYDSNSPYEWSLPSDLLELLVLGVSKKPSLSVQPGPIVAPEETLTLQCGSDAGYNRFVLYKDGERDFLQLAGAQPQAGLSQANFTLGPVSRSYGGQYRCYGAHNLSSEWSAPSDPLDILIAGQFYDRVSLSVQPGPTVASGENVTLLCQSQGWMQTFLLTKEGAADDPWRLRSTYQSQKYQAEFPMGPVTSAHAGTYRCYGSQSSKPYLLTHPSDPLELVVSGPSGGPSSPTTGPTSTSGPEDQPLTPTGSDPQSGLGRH
Description: as §1

[6] = target: T5, human LILRB2-his (human, UniProt Q8N423 22-460, limits assumed); assay: SPR (Biacore 8K), antibody captured via Fc, LILRB2-his as analyte, 1:1 model
T5 construct: Analyte of the Biacore run; not shown: His tag
T5 sequence (Q8N423 22-460 limits assumed): as the sequence (Q8N423 22-460 limits assumed) above

[7] = target: T6, human LILRB1-his (human, UniProt Q8NHL6 24-458, limits assumed); assay: SPR (Biacore 8K), antibody captured via Fc, LILRB1-his as analyte, 1:1 model
T6 construct: Analyte of the Biacore run; not shown: His tag
T6 sequence (Q8NHL6 24-458 limits assumed): as the sequence (Q8NHL6 24-458 limits assumed) above

Binder	EC50 [1] [nM]	Top Inhibition [1] [%]	EC50 [3] [nM]	EC50 [2] [nM]	Kd [6] [nM]	koff [6] [s⁻¹]	kon [6] [M⁻¹ s⁻¹]	also measured
B1	1.61	87.3	0.65	–	–	–	–	binding result [2]: no binding
B2	2.86	70.8	1.34	0.27	–	–	–	–
B3	1.32	32.7	4.55	7.23	–	–	–	–
B4	2.16	70.3	2.34	0.16	–	–	–	–
B5	13.4	35.3	4.3	6.01	–	–	–	–
B6	1.26	89.1	–	–	–	–	–	binding result [2]: no binding
B7	–	–	–	–	–	–	–	koff [4]: 0.000244 s⁻¹; koff [5]: 0.000205 s⁻¹
B8	–	–	–	–	0.161	0.000123	766000	–
B9	–	–	–	–	0.208	0.00014	673000	–
B10	–	–	–	–	0.201	0.000129	642000	–
B11	–	–	–	–	1.01	0.000871	860000	Kd [7]: 31.6 nM; koff [7]: 0.00582 s⁻¹; kon [7]: 184000 M⁻¹ s⁻¹
B12	–	–	–	–	0.836	0.000758	907000	Kd [7]: 25.1 nM; koff [7]: 0.00446 s⁻¹; kon [7]: 177000 M⁻¹ s⁻¹
B13	–	–	–	–	0.852	0.000638	749000	Kd [7]: 20.1 nM; koff [7]: 0.00335 s⁻¹; kon [7]: 167000 M⁻¹ s⁻¹
